The target in assay [1] is Drosophila non-muscle myosin II heavy chain, HMM construct (amino acids 1-1363) (Drosophila melanogaster) (UniProt Q99323). The assay can be described thus: co-purification (Flag affinity chromatography, stained SDS gel); heavy chain and both light chains co-expressed in Sf9 cells, purified via Flag affinity chromatography (HMM also by size exclusion chromatography); PageBlue-stained 4-12% Bis-Tris gel.

The target in assay [2] is Drosophila non-muscle myosin II heavy chain, full length (amino acids 1-1971) (Drosophila melanogaster) (UniProt Q99323). The description is as above.
Sequence of Drosophila non-muscle myosin II heavy chain, full length (amino acids 1-1971) (Drosophila melanogaster) (Q99323 other isoform, or with tags, fused parts or gaps): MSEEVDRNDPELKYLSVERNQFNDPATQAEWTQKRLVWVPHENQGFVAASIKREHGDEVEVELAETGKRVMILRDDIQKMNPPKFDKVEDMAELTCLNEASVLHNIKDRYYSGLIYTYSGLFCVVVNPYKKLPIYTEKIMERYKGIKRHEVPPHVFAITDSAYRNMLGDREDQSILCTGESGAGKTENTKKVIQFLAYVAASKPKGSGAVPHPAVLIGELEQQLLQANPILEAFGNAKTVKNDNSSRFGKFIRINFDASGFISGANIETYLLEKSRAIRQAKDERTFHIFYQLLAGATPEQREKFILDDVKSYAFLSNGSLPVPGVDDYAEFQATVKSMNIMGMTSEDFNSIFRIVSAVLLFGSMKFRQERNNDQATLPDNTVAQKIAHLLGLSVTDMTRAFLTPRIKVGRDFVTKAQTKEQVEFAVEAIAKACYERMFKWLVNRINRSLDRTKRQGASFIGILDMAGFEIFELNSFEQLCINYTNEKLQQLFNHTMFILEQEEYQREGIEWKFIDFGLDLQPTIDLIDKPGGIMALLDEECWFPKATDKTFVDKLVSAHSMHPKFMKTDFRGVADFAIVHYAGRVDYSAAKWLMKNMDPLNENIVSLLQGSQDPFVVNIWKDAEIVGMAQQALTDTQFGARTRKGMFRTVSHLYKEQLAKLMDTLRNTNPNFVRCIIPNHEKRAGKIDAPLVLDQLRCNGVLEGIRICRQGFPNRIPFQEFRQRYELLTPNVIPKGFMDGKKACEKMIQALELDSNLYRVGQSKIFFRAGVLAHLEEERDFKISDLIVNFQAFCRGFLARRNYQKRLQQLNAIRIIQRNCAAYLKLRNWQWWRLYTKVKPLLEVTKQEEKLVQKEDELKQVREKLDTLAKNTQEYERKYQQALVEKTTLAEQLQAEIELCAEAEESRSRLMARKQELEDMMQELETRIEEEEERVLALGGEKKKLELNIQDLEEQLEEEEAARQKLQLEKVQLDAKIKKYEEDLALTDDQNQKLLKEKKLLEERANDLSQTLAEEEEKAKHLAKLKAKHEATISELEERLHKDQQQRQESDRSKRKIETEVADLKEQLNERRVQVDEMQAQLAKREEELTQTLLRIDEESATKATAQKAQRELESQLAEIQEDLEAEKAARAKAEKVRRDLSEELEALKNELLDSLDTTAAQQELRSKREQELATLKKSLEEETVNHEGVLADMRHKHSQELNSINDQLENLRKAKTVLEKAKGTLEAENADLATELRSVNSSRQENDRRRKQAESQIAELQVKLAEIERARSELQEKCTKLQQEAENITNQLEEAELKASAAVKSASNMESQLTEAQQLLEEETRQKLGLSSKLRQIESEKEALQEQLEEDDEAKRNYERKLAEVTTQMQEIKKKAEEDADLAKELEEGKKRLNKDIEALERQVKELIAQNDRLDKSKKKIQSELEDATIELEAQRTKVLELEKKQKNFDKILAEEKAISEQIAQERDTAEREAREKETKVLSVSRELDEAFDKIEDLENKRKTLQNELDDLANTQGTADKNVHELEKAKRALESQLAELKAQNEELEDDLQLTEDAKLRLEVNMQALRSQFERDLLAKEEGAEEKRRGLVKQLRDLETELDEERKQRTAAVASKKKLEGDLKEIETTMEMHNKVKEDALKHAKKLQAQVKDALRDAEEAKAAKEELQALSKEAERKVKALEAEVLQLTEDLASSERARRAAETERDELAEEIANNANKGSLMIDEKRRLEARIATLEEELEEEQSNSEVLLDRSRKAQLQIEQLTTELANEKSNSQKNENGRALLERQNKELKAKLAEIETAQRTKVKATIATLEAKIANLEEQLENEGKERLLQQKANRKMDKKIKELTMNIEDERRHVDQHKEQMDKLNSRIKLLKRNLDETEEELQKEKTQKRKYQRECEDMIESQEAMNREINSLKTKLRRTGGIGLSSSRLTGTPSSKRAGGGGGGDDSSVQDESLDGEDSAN
Assay [3] addresses filamentous actin from rabbit skeletal muscle (rabbit) (UniProt P68135).
Assay [4] concerns the target T1, Drosophila non-muscle myosin II heavy chain, HMM construct (amino acids 1-1363) (Drosophila melanogaster, UniProt Q99323-2 1-1363).
T1 construct: numbers count on: NP_001014553.1; the heavy chain alone, for the rows of heavy chain with each light chain; whether it carries the Halo tag is not clear; also called HMM (160 kDa); myosin heavy chain
Put plainly: co-purification (Flag affinity chromatography, stained SDS gel); heavy chain and both light chains co-expressed in Sf9 cells, purified via Flag affinity chromatography (HMM also by size exclusion chromatography); PageBlue-stained 4-12% Bis-Tris gel. The conditions noted are these: partners not purified. In general terms: In gel filtration, larger molecules generally elute earlier.

In assay [5] the target is T2, Drosophila non-muscle myosin II heavy chain, full length (amino acids 1-1971) (Drosophila melanogaster, UniProt Q99323-2 1-1971).
T2 construct: the heavy chain alone, for the rows of heavy chain with each light chain; also called full-length (228 kDa); myosin heavy chain
The assay is described as above. The settings on record: partners not purified.

Sequence of Drosophila non-muscle myosin II heavy chain, HMM construct (amino acids 1-1363) (Drosophila melanogaster) (Q99323 other isoform, or with tags, fused parts or gaps): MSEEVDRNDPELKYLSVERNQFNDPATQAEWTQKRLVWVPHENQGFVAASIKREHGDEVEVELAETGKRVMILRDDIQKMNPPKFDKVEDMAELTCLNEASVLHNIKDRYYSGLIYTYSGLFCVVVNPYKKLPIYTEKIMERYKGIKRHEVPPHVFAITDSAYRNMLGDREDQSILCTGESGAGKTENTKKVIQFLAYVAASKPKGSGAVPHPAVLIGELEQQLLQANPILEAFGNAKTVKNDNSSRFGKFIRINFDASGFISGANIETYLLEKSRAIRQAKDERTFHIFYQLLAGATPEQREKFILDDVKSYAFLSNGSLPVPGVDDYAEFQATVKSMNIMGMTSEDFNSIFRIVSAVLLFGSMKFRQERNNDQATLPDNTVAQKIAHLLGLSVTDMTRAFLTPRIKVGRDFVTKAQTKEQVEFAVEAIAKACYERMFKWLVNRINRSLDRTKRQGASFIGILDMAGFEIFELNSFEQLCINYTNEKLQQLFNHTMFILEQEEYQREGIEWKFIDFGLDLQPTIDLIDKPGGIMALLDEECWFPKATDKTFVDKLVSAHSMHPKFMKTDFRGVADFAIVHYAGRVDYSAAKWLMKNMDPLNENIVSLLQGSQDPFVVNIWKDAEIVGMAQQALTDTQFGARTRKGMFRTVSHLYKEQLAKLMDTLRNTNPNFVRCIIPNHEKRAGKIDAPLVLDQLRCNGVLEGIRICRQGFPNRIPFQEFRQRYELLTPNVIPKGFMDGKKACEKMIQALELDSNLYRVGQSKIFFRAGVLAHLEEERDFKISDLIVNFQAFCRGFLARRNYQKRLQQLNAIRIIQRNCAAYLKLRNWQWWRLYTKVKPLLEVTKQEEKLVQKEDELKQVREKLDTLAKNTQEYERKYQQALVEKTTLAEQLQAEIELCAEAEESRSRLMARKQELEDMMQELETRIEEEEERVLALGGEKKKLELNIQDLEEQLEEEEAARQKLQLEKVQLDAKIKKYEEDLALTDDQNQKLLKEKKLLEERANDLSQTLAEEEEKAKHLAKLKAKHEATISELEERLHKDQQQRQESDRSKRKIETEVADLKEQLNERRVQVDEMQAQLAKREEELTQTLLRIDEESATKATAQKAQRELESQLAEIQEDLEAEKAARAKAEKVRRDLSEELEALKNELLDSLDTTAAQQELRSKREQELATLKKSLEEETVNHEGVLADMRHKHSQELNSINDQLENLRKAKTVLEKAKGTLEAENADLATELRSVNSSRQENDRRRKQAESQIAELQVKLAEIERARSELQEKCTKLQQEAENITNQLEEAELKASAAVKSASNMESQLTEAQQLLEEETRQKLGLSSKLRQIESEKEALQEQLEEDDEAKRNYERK

What is called stoichiometry N is a count of units in the complex or per binding partner. As to “Drosophila myosin regulatory light chain (Sqh), mutant RLC-AA (natural protein)”, the stoichiometry N in assay [1] and in assay [2] was 1 throughout.
Turning to “Drosophila myosin regulatory light chain (Sqh), mutant RLC-AE (natural protein)”, the stoichiometry N in assay [1] and in assay [2] was 1 throughout.
For “Drosophila myosin regulatory light chain (Sqh), mutant RLC-AS (natural protein)”, the stoichiometry N in assay [1] and in assay [2] was 1 throughout.
With “Drosophila myosin regulatory light chain (Sqh), mutant RLC-EE (natural protein)”, the stoichiometry N in assay [1] and in assay [2] was 1 in each case.
Take “Drosophila myosin regulatory light chain (Sqh), mutant RLC-TA (natural protein)”: the stoichiometry N in assay [1] and in assay [2] was 1 in each case.
Consider “Drosophila non-muscle myosin II heavy meromyosin (HMM) with wild-type RLC, phosphorylated by MLCK (from UniProt Q99323-2 1-1363; P40423 1-174; P54357 1-147) (complex)”, for which, in assay [3], the Kapp (apparent actin affinity) of the actin-activated steady-state ATPase, NADH-linked assay at 25°C, 0-100 µM filamentous actin, Michaelis-Menten fit worked out at 38.9 µM.

B1: Drosophila myosin regulatory light chain (Sqh), wild type (natural protein, Drosophila melanogaster, UniProt P40423 1-174, looked up)
light: MSSRKTAGRRATTKKRAQRATSNVFAMFDQAQIAEFKEAFNMIDQNRDGFVEKEDLHDMLASLGKNPTDDYLDGMMNEAPGPINFTMFLTLFGERLQGTDPEDVIKNAFGCFDEENMGVLPEDRLRELLTTMGDRFTDEDVDEMYREAPIKNGLFDYLEFTRILKHGAKDKDEQ
notes: Drosophila myosin regulatory light chain Sqh (spaghetti squash); 19 kDa on the gel; also called RLC; RLC-TS; source: Sf9 insect cells (baculovirus, polycistronic vector with Mlc-c), co-expressed and co-purified with the heavy chain
Regarding B1, the “stoichiometry N” value in assay [4] and in assay [5] was 1 each time.

B2: Drosophila myosin essential light chain (Mlc-c) (natural protein, Drosophila melanogaster, UniProt P54357 1-147, looked up)
light: MAAYTEDQLAEFQEAFNLFDNRGDGKIQLSQVGECLRALGQNPTESDVKKCTHQLKPDERISFEVFLPIYQAISKARSGDTADDFIEGLRHFDKDASGYISSAELRHLLTTLGEKLTDEEVEQLLANMEDQQGNINYEEFVRMVMSG
notes: Drosophila myosin essential light chain Mlc-c; 16 kDa on the gel; also called ELC; source: Sf9 insect cells (baculovirus, polycistronic vector with Sqh), co-expressed and co-purified with the heavy chain
Consider B2, for which the “stoichiometry N” value in assay [4] and in assay [5] was 1 throughout.

The record behind these values is publication PMC5201417, “Drosophila non-muscle myosin II motor activity determines the rate of tissue folding” (eLife, 2016).
